In article PMC6385209:

Assay: mouse vaccination, whole-cell ELISA for CPS14-specific IgG
Settings: glycan gained; control: unglycosylated ComP

ComP: CPS14-ComP bioconjugate
other: immunogenicity: increases
